According to paper PMC10823521:

Molecular target: H3·H4 heterodimer (human H3.3 and H4) (human) (UniProt P84243)
Assay: high-speed atomic force microscopy; purified nucleosomes, hexasomes and de novo tetrasomes on 601 DNA (200W100), 1.5-3.5 nM, on bare mica, imaged in 10-fold-diluted buffer A at 1-2 fps, room temperature; histone core volume tracked over time; DNA present

observation time until one H3·H4 dimer was dislodged from a de novo tetrasome: 2 min
Substance: H3·H4 heterodimer (human H3.3 and H4) (from UniProt P84243 1-136; P62805 1-103) (complex)
